{"source": "paper PMC6085349", "about": "“Silkworms suppress the release of green leaf volatiles by mulberry leaves with an enzyme from their spinnerets” (Scientific Reports, 2018)", "proteins": {"B1": {"name": "BmFHD (Bombyx mori fatty acid hydroperoxide dehydratase) (Bombyx mori) (protein)", "chain": "GGLRTTWGVGLGLGTDFFYEIPRSLEEVKSQGWVLTDKADGLPLPSLALYCSEDRILCGFFDETEYVVGLQVSLPVDEVTDIIFDMPTQGFIIWETEVDGELKKFYSIQQYFINEDTLKQSVEDRLSKWDSSKTLQEKSIWVTGFNGTLLEISTVADDIANGDDFTKQACVPWMGRHYYYKMSAKTECKADTLLPWFPIVESGELIATGFISFLKLSNTYKWFEKPSKAAVQFIVPDGPKCLYDLAEDSGLTTMHIYYVNQPWLVSCLWQ", "notes": "native, purified from middle silk glands (MSG-A) of fifth instar larvae; 289 aa precursor with predicted 19-residue N-terminal signal peptide; 32 kDa on SDS-PAGE; no tag"}}, "substrate": "CC/C=C\\C[C@@H](/C=C/C=C\\CCCCCCCC(=O)O)OO", "experiment": "purified protein", "type": "biochemical, Bombyx mori", "details": "typical assay 50 mM sodium borate pH 9.0, no cofactor, enzyme inactivates during turnover", "data": [{"protein": "B1", "values": [{"measurement": "Km", "value": 1.13, "unit": "µM"}]}]}
